The values below come from patent US9611303B2, “Modified biotin-binding protein” (Japan Tobacco Inc., priority 2009, dated 2017).

Values joined by “and” are separate entries in the source; they are usually repeats but may differ in a detail not shown here. Identical values can stand only once. “Also recorded” adds a separate entry of the source.

Series [1] in a line: Purification of LATM2 with 2-iminobiotin-agarose. It is filed as binding. To be noted: for Recovery rate (%): Iminobiotin-agarose, binding at pH 12, elution with 50 mM NH4OAC (pH 4); for recovery rates compared with WT: purification with 2-iminobiotin-agarose; for Note (Iminobiotin-agarose): FT = column flow-through fraction. As to the method: LATM2 was purified through a column charged with 2-iminobiotin-agarose (manufactured by Sigma-Aldrich Corp.) in accordance with the method by Hofmann, et al., (1980). IPTG was added to 25 mL of a culture solution of E. coli transformed with each LATM2 in a final concentration of 1 mM to induce expression. The E. coli cells were collected by centrifugation, suspended in 1.5 mL of 50 mM CAPS (pH 12) containing 50 mM NaCl, and then sonicated. To the supernatant of the disrupted cells, 500 μL of 2-iminobiotin-agarose was added, which was then packed in a column. The column was sufficiently washed with 50 mM CAPS (pH 12) containing 500 mM NaCl, and elution was then performed with 50 mM NH4OAC (pH 4).
(§1) The recovery rate in Table 2 was calculated by dividing the amount of LATM2 protein after purification by the amount of LATM2 protein before purification and was expressed by percent by multiplying the quotient by 100. The degree of purification was the ratio of the amount of LATM2 protein to the total amount of proteins in the purified fraction and was expressed by percent by multiplying the ratio by 100. The recovery rates and the degrees of purification in biotin-agarose were the results after binding at pH 7 and elution with an excess amount of biotin.

A short description of series [2]: Purification of LATM2 with biotin-agarose. The class given is binding. Particulars: for Recover rate (%) / Note (Biotin-agarose): binding at pH 7, recovery with 10 mM biotin; for Note (Biotin-agarose): FT = flow-through. On the procedure: Purification with biotin-agarose (manufactured by Sigma-Aldrich Corp.) was performed by the following procedure. After induced expression of 25 mL of a culture solution of E. coli for each LATM2, the E. coli cells were suspended in 1.5 mL of a 100 mM potassium phosphate buffer (pH 7.0), and then sonicated. To the supernatant of the disrupted cells. 400 μL of biotin-agarose was added, which was followed by upside-down mixing for 1 hr. […]
In TM2 S36A-T78A-D116A, the E. coli cells were suspended in 1.5 mL of 50 mM CAPS (pH 12) containing 50 mM NaCl, and then sonicated. To the disrupted cells, 400 μL of biotin-agarose was added, which was followed by upside-down mixing for 1 hr. The column was sufficiently washed with 50 mM CAPS (pH 12) containing 500 mM NaCl, and elution was then performed with 1 mL of PBS (pH 7.4) containing 10 mM biotin.
In TM2 S36A-D116A, the E. coli cells were suspended in 1.5 mL of a 100 mM potassium phosphate buffer (pH 4.0), and then sonicated. To the pupernatant of the disrupted cells, 400 μL of biotin-agarose was added. Washing was performed with a 100 mM potassium phosphate buffer (pH 4) containing 500 mM NaCl, and elution was performed with 1 mL of PBS (pH 7) containing 10 mM biotin. Biotin binding to LATM2 that has been eluted with an excess amount of biotin was removed by dialysis with a 20 mM potassium phosphate buffer overnight.
as §1

Series [3] in a line: Subunit association by FPLC on Sephacryl S-100HR. The class given is physicochemical. To be noted: for Structure (identified by FPLC): Sephacryl S-100HR, 50 mM potassium phosphate, 500 mM NaCl; for Sephacryl (mL), elution peak position: tetramer 44 to 47 mL, dimer 51 to 54 mL, monomer 63 to 66 mL; for share present as monomer: of the total. On the procedure:
In order to analyze the subunit association conditions of LATM2, the molecular weight of each LATM2s was measured by FPLC. Sephacryl S-100HR (manufactured by GE Healthcare) was used as a column, a Gel Filtration Calibration Kit LMW (manufactured by GE Healthcare) was used as molecular weight markers, and 50 mM potassium phosphate containing 500 mM NaCl was used as a buffer.
The positions of the peaks of eluted tetramer were defined to be 44 to 47 mL after injection of WT-TM2 as a control. The peak of an eluted monomer appeared at around 63 to 66 mL and the peak of an eluted dimer appeared at around 51 to 54 mL, from result of loading the molecular weight markers.

B1: TM2 W108K: TM2 in which the 108th tryptophan was replaced with lysine (protein)
chain: MSDVQSSLTGTWYNELNSKMELTANKDGTLTGKYLSKVGDVYVPYPLSGRYNLQPPAGQGVALGWAVSWENSKIHSATTWSGQFFSESSPVILTQWLLSSSTARGDVKESTLVGNDSFTKTAPTEQQIAHAQLHCRAPRLK
As to B1, in series [1], the “Recovery rate (%)” value is reported as 30% and the “recovery rates compared with WT” value is “inferior to WT”. The “Recover rate (%)” value in series [2] (Biotin-agarose) is on record as 95%. In addition, the “share present as tetramer” value in series [3] (FPLC) came out at 100%. Besides, in series [3], the “Structure (identified by FPLC)” value is given as “Tetramer” and the “Sephacryl (mL), elution peak position” value came to 45.14 mL.

B2: TM2 W108E: TM2 in which the 108th tryptophan was replaced with glutamic acid (protein)
chain: MSDVQSSLTGTWYNELNSKMELTANKDGTLTGKYLSKVGDVYVPYPLSGRYNLQPPAGQGVALGWAVSWENSKIHSATTWSGQFFSESSPVILTQWLLSSSTARGDVEESTLVGNDSFTKTAPTEQQIAHAQLHCRAPRLK
Turning to B2, in series [1], the “Note (Iminobiotin-agarose)” value was “To FT”, the “Recovery rate (%)” value was 5% and the “recovery rates compared with WT” value is “inferior to WT”. The “Recover rate (%)” value in series [2] (Biotin-agarose) turned out to be 95%. Further, in series [3] (FPLC), the “share present as dimer” value turned out to be 67% and the “share present as tetramer” value is reported as 33%. Further, in series [3], the “Structure (identified by FPLC)” value is listed as “dimer; also recorded: tetramer,”; the “Sephacryl (mL), elution peak position” value is 44.69 mL and 52.30, mL.

B3: TM2 V113R: TM2 in which the 113th valine was replaced with arginine (protein)
chain: MSDVQSSLTGTWYNELNSKMELTANKDGTLTGKYLSKVGDVYVPYPLSGRYNLQPPAGQGVALGWAVSWENSKIHSATTWSGQFFSESSPVILTQWLLSSSTARGDVWESTLRGNDSFTKTAPTEQQIAHAQLHCRAPRLK
With B3, in series [1], the “binding to 2-iminobiotin-agarose” value is on record as “did not bind”, the “Note (Iminobiotin-agarose)” value is recorded as “To FT” and the “Recovery rate (%)” value is on record as 0%. The “Recover rate (%)” value in series [2] (Biotin-agarose) is 30%. Also, in series [3], the “Structure (identified by FPLC)” value is “Tetramer” and the “Sephacryl (mL), elution peak position” value was found to be 46.49 mL.

B4: TM2 A66R-L97T: TM2 double mutant A66R and L97T; not in the list of 30 forms, vector named in b302 (protein)
chain: MSDVQSSLTGTWYNELNSKMELTANKDGTLTGKYLSKVGDVYVPYPLSGRYNLQPPAGQGVALGWRVSWENSKIHSATTWSGQFFSESSPVILTQWTLSSSTARGDVWESTLVGNDSFTKTAPTEQQIAHAQLHCRAPRLK
Regarding B4, in series [1], the “binding to 2-iminobiotin-agarose” value is recorded as “did not bind”, the “Note (Iminobiotin-agarose)” value was “To FT” and the “Recovery rate (%)” value is listed as 0%. Also, in series [2] (Biotin-agarose), the “Recover rate (%)” value is reported as 80%. Moreover, in series [3] (dimer peak), the “Structure (identified by FPLC)” value is listed as “dimer,” and the “Sephacryl (mL), elution peak position” value is listed as 54.49, mL. The “share present as monomer” value in series [3] (FPLC) is 90%.

B5: TM2 L97T: TM2 in which the 97th leucine was replaced with threonine (protein)
chain: MSDVQSSLTGTWYNELNSKMELTANKDGTLTGKYLSKVGDVYVPYPLSGRYNLQPPAGQGVALGWAVSWENSKIHSATTWSGQFFSESSPVILTQWTLSSSTARGDVWESTLVGNDSFTKTAPTEQQIAHAQLHCRAPRLK
As for B5, in series [1], the “Note (Iminobiotin-agarose)” value is recorded as “To FT” and the “Recovery rate (%)” value stood at 0%. For the same molecule, in series [2], the binding to biotin-agarose result is recorded as “bound to biotin-agarose”, the “elution from biotin-agarose with an excess amount of biotin” value is recorded as “not eluted” and the “Note (Biotin-agarose)” value is on record as “not eluted”. The “Recover rate (%)” value in series [2] (Biotin-agarose) was determined as 0%.

B6: TM2 A66R: TM2 in which the 66th alanine was replaced with arginine (protein)
chain: MSDVQSSLTGTWYNELNSKMELTANKDGTLTGKYLSKVGDVYVPYPLSGRYNLQPPAGQGVALGWRVSWENSKIHSATTWSGQFFSESSPVILTQWLLSSSTARGDVWESTLVGNDSFTKTAPTEQQIAHAQLHCRAPRLK
On to B6, for which, in series [1], the “binding to 2-iminobiotin-agarose” value is given as “did not bind”, the “Note (Iminobiotin-agarose)” value is listed as “To FT” and the “Recovery rate (%)” value stood at 0%. In series [2] (Biotin-agarose), the “Recover rate (%)” value is recorded as 50%. For the same molecule, in series [3] (monomer peak), the “Structure (identified by FPLC)” value is given as “monomer” and the “Sephacryl (mL), elution peak position” value is given as 66.15 mL. For the same molecule, in series [3] (tetramer peak), the “Structure (identified by FPLC)” value is reported as “tetramer,” and the “Sephacryl (mL), elution peak position” value is 45.50, mL. Besides, in series [3] (FPLC), the “share present as monomer” value is listed as “about 30%”. Moreover, in series [3] (FPLC, listed as A66R), the “share present as monomer” value is 30%.

B7: TM2 A66R-V113R: TM2 with 66th alanine and 113th valine replaced with arginine (protein)
chain: MSDVQSSLTGTWYNELNSKMELTANKDGTLTGKYLSKVGDVYVPYPLSGRYNLQPPAGQGVALGWRVSWENSKIHSATTWSGQFFSESSPVILTQWLLSSSTARGDVWESTLRGNDSFTKTAPTEQQIAHAQLHCRAPRLK
In the case of B7, in series [1], the “binding to 2-iminobiotin-agarose” value is “did not bind”, the “Note (Iminobiotin-agarose)” value is given as “To FT” and the “Recovery rate (%)” value was found to be 0%. Further, in series [2], the binding to biotin-agarose result is recorded as “did not bind” and the “Note (Biotin-agarose)” value is given as “To FT”. For the same molecule, the “Recover rate (%)” value in series [2] (Biotin-agarose) was determined as 0%.

B8: TM2 N14A: TM2 in which the 14th asparagine was replaced with alanine (protein)
chain: MSDVQSSLTGTWYAELNSKMELTANKDGTLTGKYLSKVGDVYVPYPLSGRYNLQPPAGQGVALGWAVSWENSKIHSATTWSGQFFSESSPVILTQWLLSSSTARGDVWESTLVGNDSFTKTAPTEQQIAHAQLHCRAPRLK
As to B8, in series [1], the “Recovery rate (%)” value came to 10% and the “recovery rates compared with WT” value is reported as “inferior to WT”. The “Recover rate (%)” value in series [2] (Biotin-agarose) came to 50%. Moreover, in series [3], the “Structure (identified by FPLC)” value was “Tetramer” and the “Sephacryl (mL), elution peak position” value is 46.24 mL.

B9: TM2 W69K: TM2 in which the 69th tryptophan was replaced with lysine (protein)
chain: MSDVQSSLTGTWYNELNSKMELTANKDGTLTGKYLSKVGDVYVPYPLSGRYNLQPPAGQGVALGWAVSKENSKIHSATTWSGQFFSESSPVILTQWLLSSSTARGDVWESTLVGNDSFTKTAPTEQQIAHAQLHCRAPRLK
As for B9, in series [1], the “Note (Iminobiotin-agarose)” value is listed as “To FT”, the “Recovery rate (%)” value was 5% and the “recovery rates compared with WT” value is recorded as “inferior to WT”. Moreover, the “Recover rate (%)” value in series [2] (Biotin-agarose) turned out to be 50%. Moreover, the “recover rate by elution with acetic acid” value in series [2] (Biotin-agarose, elution with acetic acid) was “recover rate: 95%”. Also, in series [3], the “Structure (identified by FPLC)” value is “Tetramer” and the “Sephacryl (mL), elution peak position” value worked out at 45.09 mL.
